The values that follow come from publication PMC6641210 (2019).

For test [1], the target named is T1, rabbit FcγRIIIA extracellular domain fragment (rabbit (Oryctolagus cuniculus)).
T1 chain: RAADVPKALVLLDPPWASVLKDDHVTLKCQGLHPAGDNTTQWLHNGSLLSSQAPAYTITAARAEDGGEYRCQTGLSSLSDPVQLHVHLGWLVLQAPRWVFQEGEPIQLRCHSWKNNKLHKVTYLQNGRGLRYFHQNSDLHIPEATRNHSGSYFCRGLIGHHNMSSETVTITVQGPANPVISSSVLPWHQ
Description: SPR.

Test [2] has as its target T2, pig FcγRIIIA extracellular domain fragment (pig, UniProt Q28942 20-209).
T2 chain: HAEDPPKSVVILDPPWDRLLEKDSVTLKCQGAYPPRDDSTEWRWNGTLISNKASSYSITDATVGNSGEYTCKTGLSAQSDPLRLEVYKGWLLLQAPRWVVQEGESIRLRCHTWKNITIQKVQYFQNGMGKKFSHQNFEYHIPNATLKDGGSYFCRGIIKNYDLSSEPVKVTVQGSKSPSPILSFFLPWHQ
Description: SPR. (In SPR one partner is held on a chip, and binding of the other changes the refractive index at the surface.)

“And” between values parts separate entries of the source, which are not always exact repeats. Equal values may be shown once.

B1: human IgG1 antibody with a kappa light chain (human anti-Tissue Factor antibody 25G1) (antibody)
chain 1: QVQLVQSGAEVKKPGASVKVSCKASGYTFRSYGISWVRQAPGQGLEWMGWVAPYSGNTNYAQKLQGRVTMTTDTSTSTAYMELRSLRSDDTAVYYCARDAGTYSPYGYGMDVWGQGTTVTVSS
chain 2: DIQMTQSPSTLSASVGDRVTITCRASHSIDSWLAWYQQKPGKAPKLLIYKASYLESGVPSRFSGSGSGTEFTLTISSLQPDDFATYYCQLFQSLPPFTFGGGTKVEIK
As usually defined, the Kd is the concentration at which binding is half-saturated. A higher Kd goes with a looser complex. On to B1, for which the Kd in test [1] is 2.17 µM and 2.71 µM; in test [2], 8.06 µM and 14.7 µM.
